Numbering of substitutions follows the chain as printed.
B1: Pmer-M1 (dsDNA)
DNA 1: TTGACTCGTACATGAGTACGGAAGTAAGGT
DNA 2: ACCTTACTTCCGTACTCATGTACGAGTCAA
B2: Pmer-M4 (dsDNA)
DNA 1: TTGACTCCGTACTGAGTACGGAAGTAAGGT
DNA 2: ACCTTACTTCCGTACTCAGTACGGAGTCAA
B3: Pmer-M7 (dsDNA)
DNA 1: TTGACTCCGTACATGAGACGGAAGTAAGGT
DNA 2: ACCTTACTTCCGTCTCATGTACGGAGTCAA
B4: Pmer-M10 (dsDNA)
DNA 1: TTGACTCCGTACATGAGTACGGAGTAAGGT
DNA 2: ACCTTACTCCGTACTCATGTACGGAGTCAA
B5: Pmer-M11 (dsDNA)
DNA 1: B4 DNA 1 with G24A
DNA 2: B4 DNA 2 with C7T
B6: Pmer-M12 (dsDNA)
DNA 1: TTGACTCCGTACATGAGTACGGGTAAGGT
DNA 2: ACCTTACCCGTACTCATGTACGGAGTCAA
B7: Pmer-M14 (dsDNA)
DNA 1: TTGACTCCGTACATGAGTACGGTAAGGT
DNA 2: ACCTTACCGTACTCATGTACGGAGTCAA

biological target: T1, MerR (Tn501) (Pseudomonas aeruginosa (Tn501), UniProt P0A183 1-144); experiment: EMSA; 0-600 nM MerR, 30 nM DNA, no Hg stated; 10 mM Tris-HCl pH 8.0, 50 mM KCl, 5 mM MgCl2, 10% glycerol, 25 C 10 min; 8% native PAGE, 80 V 45 min; settings: protein: recombinant; chain copies: 2; blunt
T1 sequence: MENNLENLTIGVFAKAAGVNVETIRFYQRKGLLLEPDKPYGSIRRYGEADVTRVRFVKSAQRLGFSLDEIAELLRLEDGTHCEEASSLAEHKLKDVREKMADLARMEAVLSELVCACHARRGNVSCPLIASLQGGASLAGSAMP

Does B1 bind?
Result: binds

Does B2 bind?
Result: no binding

Does B3 bind?
Result: no binding

Does B4 bind?
Result: binds

Does B5 bind?
Result: binds

Does B6 bind?
Result: binds

Does B7 bind?
Result: binds
